In the supplement of paper PMC9170038:

System: MS2 coat protein
Assay: apparent KD of MS2 coat protein; designed switch direction (-1 OFF switch, 1 ON switch): -1; higher = weaker reporter binding
Outline: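 Stalled E. coli RNA polymerase transcribed designed RNA switches on Illumina chips, which were then titrated with SNAP-549-labelled MS2 coat protein, doubling from 0.7 or 1.5 nM to 3 µM. Steps lasted from 0.8–1.5 h at the lowest concentration to 10–20 min at the highest. The apparent KD is each design's median over clusters of curve-fitted normalised fluorescence.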

[1] = input ligand: microRNA oligo, concentration not stated
[2] = Eterna round: R95, input ligand: microRNA oligo, concentration not stated
[3] = Eterna round: R95, input ligand: FMN 200 uM
[4] = Eterna round: R95, input ligand: none

Sequence	apparent KD of MS2 coat protein (input ligand: FMN 200 uM)	apparent KD of MS2 coat protein (input ligand: none)	apparent KD of MS2 coat protein [1]	apparent KD of MS2 coat protein [2]	apparent KD of MS2 coat protein [3]	apparent KD of MS2 coat protein [4]
GGACGGUUAGUUAGGAUAUGCUCUACCUCGGUAGAGCAGAAGGGACAUGAGGAUCACCCAUGUGAUAACUGUUC [Omei Ex4B B35] (Eterna round: R97, puzzle: Brourd's mod of Exclusion 4)	0.0231 µM	0.0205 µM	–	–	–	–
GGAGAGGUAGGAUAUCCACUUUAGAACAUGAGGAUCACCCAUGUAGAACCACAUGAAAUGGGAGAAGGACCAGGGA [AK-MS2ROC-r4-exclusion5-3] (Eterna round: R97, puzzle: Exclusion 5)	0.0653 µM	0.0561 µM	–	–	–	–
GGAGAGGUAGGAUAUGGAGGUUAAAACAUGAGGAUCACCCAUGUUAAACCUCAUGACCGACUAGAAGGACCAGUCC [AK-MS2ROC-r4-exclusion5-8] (Eterna round: R97, puzzle: Exclusion 5)	0.015 µM	0.0111 µM	–	–	–	–
GGAGGAAGAGAGGAUAUGCACUCAAGGAGAAAAGCAGAAGGUUCAACAUGAGGAUCACCCAUGUAUGAUCCUCA [AK-MS2ROC-r4-exclusion6-3] (Eterna round: R97, puzzle: Exclusion 6)	0.247 µM	0.197 µM	–	–	–	–
GGAGGACGAGCAGGAUAUUUUUACAUGAGGAUCACCCAUGUGUAAUCAGGGUAAUCCUCCACCGAAAAGAAGGGUUCGGAAGAA [Mat - Exclusion NG 2 - Mod of JL - D84] (Eterna round: R96, puzzle: Exclusion NG 2)	0.0181 µM	0.0706 µM	0.00917 µM	–	–	–
GGAGGAGAGGUAAGGAUAUGGUGGUGGAAACACCACCAGAAGGUACAUGAGGAUCACCCAUGUAAGGAAGGAGG [AK-MS2ROC-r4-Bmoexclusion4-17.1] (Eterna round: R97, puzzle: Brourd's mod of Exclusion 4)	0.0267 µM	0.0266 µM	–	–	–	–
GGAUAAAACUGAGGAUAUGCGUAUCGCUAGCGAGCAGAAGGCAGACAUGAGGAUCACCCAUGUGAGUUCUCGAUAAGAAACACG [Prohibition 59 - Jieux - Exclusion NG 1] (Eterna round: R96, puzzle: Exclusion NG 1)	0.145 µM	0.0577 µM	0.0548 µM	–	–	–
GGAUAUAACGUAGGAUAUCUGAGAAACAGACGAAGAGAAGGACGACAUGAGGAUCACCCAUGUGAUCUAUCAAUAUUAUACAUG [Prohibition 99 - Jieux - Exclusion NG 1] (Eterna round: R96, puzzle: Exclusion NG 1)	0.412 µM	0.351 µM	0.33 µM	–	–	–
GGAUCACAUGUGAGGAUAUGCUGGUCCUUGGAUCAGCAGAAGGCACAUGAGGAUCACCCAUGUGAUCAAGAUCC [Eli bmx4 4.78] (Eterna round: R97, puzzle: Brourd's mod of Exclusion 4)	0.0222 µM	0.0371 µM	–	–	–	–
GGAUCAUGAGGAUAUCGAGGUUAGUACAUGAGGAUCACCCAUGUUAUCCAGGUCUCGUUUCGAGAAGGCAUGAUCC [LRO-Ex5-10] (puzzle: Exclusion 5)	–	–	–	0.0212 µM	–	–
GGAUCGAGUGUGAGGAUAUGCUGGUCCUUGGAUCAGCAGAAGGCACAUGAGGAUCACCCAUGUGAUCAAGAUCC [Eli bmx4 4.76] (Eterna round: R97, puzzle: Brourd's mod of Exclusion 4)	0.0509 µM	0.712 µM	–	–	–	–
GGAUGAGGAGUGAGGAUAUCGUGUUCGAAAGAACGUGAGAAGGCACAUGAGGAUCACCCAUGUGAUCCUCAUCG [Omei Ex4B A22] (Eterna round: R97, puzzle: Brourd's mod of Exclusion 4)	0.365 µM	0.0596 µM	–	–	–	–
GGAUUUUCUGAGGAUAUUGCAUCACCCGAUUUAUAAGAAGGCAGAACAUGAGGAUCACCCAUGUGGGUCUCUAG [Bingo-Bango-26] (Eterna round: R97, puzzle: Exclusion 6)	0.0306 µM	0.0245 µM	–	–	–	–
GGCACACAUGAGGAUCACCCAUGUGAGGAUAUGGUGCGAUCGUCGAUAGACGAUAGCACUAGAAGGCACAUGCC [Mat - Exclusion 1 - Eli Mod - D6] (Eterna round: R97, puzzle: Exclusion 1)	0.0255 µM	0.0178 µM	–	–	–	–
GGCACACAUGAGGAUCACCCAUGUGAGGAUAUGUGGCGAUCGUCGAAAGACGAUAGCCACAGAAGGCACAGGCC [Eli x1 4.24] (Eterna round: R97, puzzle: Exclusion 1)	0.0214 µM	0.0178 µM	–	–	–	–
GGCAUCAUCUGGUCCUGAUACAUGAGGAUCACCCAUGUUCUACUGUAGGUCGUAAGCAGCUUACCCUCUUAGGCACA [JR_Sensorv2_tov_Sub1249] (Eterna round: R96, puzzle: Sensor v2, turn-off variant)	0.38 µM	0.308 µM	0.227 µM	–	–	–
GGCAUGCAAGGAUAUACUUGCAGUGAUGUUCGAUAAAUUCUACUUGAGGAUCACCCAAGUAGAAGGUGCAUGCC [Exclusion 2 (Mod4 JL EX2 4.74 Vienna UCT mod of Mamaed)] (Eterna round: R97, puzzle: Exclusion 2)	0.0152 µM	0.0273 µM	–	–	–	–
GGCAUGUAAGGAUAUGCCACGCAGGCCUUUGGCCUGCGUAAGCAGAAGGUACAUGAGGAUCACCCAUGUGAUAA [jl-ex4-4.57 ViennaUCT mod] (Eterna round: R97, puzzle: Exclusion 4)	0.129 µM	0.727 µM	–	–	–	–
GGCAUGUAAGGAUAUGUGAAGGGAAGGAGAGGGAGAGGGAAGCAGAAGGUACAUGAGGAUCACCCAUGUAAGGG [AK-MS2ROC-r4-exclusion4-5.1] (Eterna round: R97, puzzle: Exclusion 4)	0.203 µM	0.108 µM	–	–	–	–
GGCCCAUGAGGAUAUCAGUCUGGAUCAGACAAGAUCCUGACUGAGAAGGCACAUGAGGAUCACCCAUGUAGGCC [Mat - Exclusion 4 - Eli Mod - D53] (Eterna round: R97, puzzle: Exclusion 4)	0.0183 µM	0.0187 µM	–	–	–	–
GGCCCUAAGGUCAGAUCCACAAGCUUUUUGCUCGUUUUAACAUGAGGAUCACCCAUGUCUAGUGGAUCUGAUCCUCA [Sensor v3, turn-off variant 2 (MOD of Indiso v.3)] (puzzle: Sensor v3, turn-off variant 2)	–	–	–	0.0121 µM	0.0169 µM	0.0208 µM
GGCCCUAAGGUCAGAUUCACAAGCUUUUUGCUCGUUUUAACAUGAGGAUCACCCAUGUCUAGUGGAUUUGAUCCUUU [Sensor v3, turn-off variant 2 (MOD of Indiso v.6)] (puzzle: Sensor v3, turn-off variant 2)	–	–	–	0.0254 µM	0.0286 µM	0.0342 µM
GGCCUGUGAGGAUAUUAGUAGUAGAUAAAAUAAACUAUUACUGAGAAGGCACAUGAGGAUCACCCAUGUUGGCC [Eli x4 4.05] (Eterna round: R97, puzzle: Exclusion 4)	0.0203 µM	0.0164 µM	–	–	–	–
GGCUAGUGAGGAUAUACGUGCACUCCUCAGUCGCCAGUCGGACAUGAGGAUCACCCAUGUAGAAGGUAUCGGCA [Qusoceus] (puzzle: Exclusion 2)	–	–	–	0.024 µM	–	–
GGGAACGUAGGAUAUACAUGAGGAUCACCCAUGUGAGGAAGGAGUAGGAAGCGUGGAAGUAGAAGGACGGAGAG [JR_Exclu3_Sub074] (puzzle: Exclusion 3)	–	–	–	0.0315 µM	0.0406 µM	0.0464 µM
GGGCCCGGAGGAUAUACAAUUUUGGGCCGAAAGGCCCGGGUACAUGAGGAUCACCCAUGUAGAAGGCCGGGCCC [-41.7, -39.1 kcal A 24%, 5a,0] (Eterna round: R97, puzzle: Exclusion 2)	0.134 µM	0.0324 µM	–	–	–	–
GGGCCCGGUGUGAGGAUAUGAGUUCGGAAAUGAGCUUAGAAGGCACAUGAGGAUCACCCAUGUAAGCCGGGCCC [-34.2, -32.1 kcal, A 26%, 1-0] (Eterna round: R97, puzzle: Brourd's mod of Exclusion 4)	0.0143 µM	0.0356 µM	–	–	–	–
GGGCUCGGAGGAUAUACAUGAGGAUCACCCAUGUAGGGCCCGGGUAUUCCCGGGCCCUGUAGAAGGCUGGGUCU [-39, -36.1 kcal, A 19%, 0-7] (Eterna round: R97, puzzle: Exclusion 3)	0.0197 µM	0.0165 µM	–	–	–	–
GGGUGACAUGAGGAUCACCCAUGUCAGGAUAUGCUUCGGCUUCGGAAAUGAAGUUGAAGUAGAAGGGACUGCCC [-30.1, -29.1 kcal, A 27% sequence 3 bis] (Eterna round: R97, puzzle: Exclusion 1)	0.0844 µM	0.0422 µM	–	–	–	–
GGGUGACAUGAGGAUCACCCAUGUCAGGAUAUGGGCCCGGGCCCGAAAGGGCCCGGGUUUAGAAGGGACUGCCC [-44.4, -43.4 kcal, 22%A (-3 GC series)] (Eterna round: R97, puzzle: Exclusion 1)	0.0593 µM	0.0429 µM	–	–	–	–
